Reference: PMC7390762

Biological target: N-utilization substance (Nus) G, Escherichia coli (E. coli) (UniProt P0AFG0)
Experiment: cryo-EM structure

Sequence of UniProt P0AFG0 (P0AFG0 whole entry): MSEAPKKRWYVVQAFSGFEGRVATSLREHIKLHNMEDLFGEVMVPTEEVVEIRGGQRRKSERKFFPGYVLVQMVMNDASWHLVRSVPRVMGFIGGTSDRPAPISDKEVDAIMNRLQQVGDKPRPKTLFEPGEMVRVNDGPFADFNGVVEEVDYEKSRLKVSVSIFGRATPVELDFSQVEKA

percent of particles with extra density at S10: 5%
stoichiometry N: 1
Substance: 70S ribosome (E. coli), intact (from UniProt P0A7R5 5-102) (complex)
